Substitutions are numbered along the chain they refer to.
B1: G1/929_01_A01 (antibody, human IgG1, V domains shown)
VH: EVQLVQSGAEVKRPGASVKVSCKASGYTFTSYGISWVRQAPGQGLEWMGWISAYGGSTNYAQKLQGRVTMTTDTSTSTAYMELRSLRSDDTAVYYCARDLFPTIFGVSYYYYWGQGTLVTVSS
VL: DIQMTQSPSTLSASVRDRVIITCRASQSIGNRLAWYQHKPGKAPKLLIYEASTSETGVPSRFSGSGSGTDFTLTISSLQPEDFATYYCQQSYSTPYTFGQGTKLEIKR
notes: IgG1; The heavy chain as printed has T28
B2: G1/929_01_A05 (antibody, human IgG1, V domains shown)
VH: B1 VH with G55S, S57G
VL: DIQMTQSPSTLSASVGDRVTITCRASQSISGRLAWYQQKPGKAPNLLIYEASNLESGVPSRFSGSGSGTEFTLTINSLQPDDFATYYCQQANTFPRVSFGGGTKVEIKR
notes: IgG1
B3: G1/929_01_A04 (antibody, human IgG1, V domains shown)
VH: B1 VH
VL: B2 VL
notes: IgG1; GGST variant of G1/894_08_A05
B4: G1/929_01_A07 (antibody, human IgG1, V domains shown)
VH: B1 VH
VL: B2 VL with N76S, D81E, A91S, N92Y, T93S, F94T, S98T, G101Q
notes: IgG1; GGST variant of G1/894_08_E05
B5: G1/929_01_A06 (antibody, human IgG1, V domains shown)
VH: B1 VH with G55S, S57N, T58A
VL: B2 VL
notes: IgG1
B6: G1/929_01_A09 (antibody, human IgG1, V domains shown)
VH: B1 VH with G55S, S57N, T58A
VL: B2 VL with N76S, D81E, A91S, N92Y, T93S, F94T, S98T, G101Q
notes: IgG1; SGNA variant of G1/894_08_E05
B7: G1/929_01_A08 (antibody, human IgG1)
heavy: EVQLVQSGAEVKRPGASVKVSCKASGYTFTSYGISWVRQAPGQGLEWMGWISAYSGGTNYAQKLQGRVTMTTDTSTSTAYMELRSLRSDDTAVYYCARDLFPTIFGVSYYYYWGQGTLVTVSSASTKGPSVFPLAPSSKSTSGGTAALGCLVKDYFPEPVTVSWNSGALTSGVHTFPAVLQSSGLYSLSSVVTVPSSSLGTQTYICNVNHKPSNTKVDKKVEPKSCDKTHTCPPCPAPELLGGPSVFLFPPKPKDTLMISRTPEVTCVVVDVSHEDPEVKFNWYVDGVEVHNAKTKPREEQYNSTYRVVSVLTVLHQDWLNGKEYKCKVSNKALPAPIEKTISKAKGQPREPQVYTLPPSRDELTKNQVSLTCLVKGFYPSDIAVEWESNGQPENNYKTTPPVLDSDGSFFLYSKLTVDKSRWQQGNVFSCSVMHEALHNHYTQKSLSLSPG
light: DIQMTQSPSTLSASVGDRVTITCRASQSISGRLAWYQQKPGKAPNLLIYEASNLESGVPSRFSGSGSGTEFTLTISSLQPEDFATYYCQQSYSTPRVTFGQGTKVEIKRTAAAAPSVFIFPPSDEQLKSGTASVVCLLNNFYPREAKVQWKVDNALQSGNSQESVTEQDSKDSTYSLSSTLTLSKADYEKHKLYACEVTHQGLSSPVTKSFNRGEC
notes: IgG1; SGGT variant of G1/894_08_E05; said to be the same as G1AA/E05v2 but without the LALA mutation
B8: G1/929_01_A03 (antibody, human IgG1, V domains shown)
VH: B1 VH with G55S, S57N, T58A
VL: B1 VL
notes: IgG1
B9: G1/894_08_A05 (antibody, human IgG1, V domains shown)
VH: B1 VH with G55N, G56S, S57N
VL: B2 VL
notes: IgG1 without LALA, kappa light chain
B10: G1/929_01_A11 (antibody, human IgG1)
heavy: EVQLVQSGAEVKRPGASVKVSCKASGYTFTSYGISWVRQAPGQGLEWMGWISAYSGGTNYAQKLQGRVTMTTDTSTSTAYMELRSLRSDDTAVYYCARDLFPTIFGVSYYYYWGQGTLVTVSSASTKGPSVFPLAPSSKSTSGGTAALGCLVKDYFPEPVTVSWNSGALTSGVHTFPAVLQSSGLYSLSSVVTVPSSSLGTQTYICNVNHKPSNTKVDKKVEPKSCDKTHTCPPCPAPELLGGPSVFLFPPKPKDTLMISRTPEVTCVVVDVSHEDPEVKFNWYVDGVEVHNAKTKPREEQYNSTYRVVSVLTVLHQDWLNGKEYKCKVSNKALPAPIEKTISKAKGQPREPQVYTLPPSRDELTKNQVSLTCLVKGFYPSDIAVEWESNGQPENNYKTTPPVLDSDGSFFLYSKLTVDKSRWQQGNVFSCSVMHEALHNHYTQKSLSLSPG
light: DIQMTQSPSTLSASVGDRVTITCRASQSISGRLAWYQQKPGKAPNLLIYEASNLESGVPSRFSGSGSGTEFTLTISSLQPEDFATYYCQQSYSWPRTFGQGTKVEIKRTAAAAPSVFIFPPSDEQLKSGTASVVCLLNNFYPREAKVQWKVDNALQSGNSQESVTEQDSKDSTYSLSSTLTLSKADYEKHKLYACEVTHQGLSSPVTKSFNRGEC
notes: IgG1; said to be the same as G1AA/G12v2 but without LALA
B11: G1/929_01_A12 (antibody, human IgG1, V domains shown)
VH: B1 VH with G55S, S57N, T58A
VL: DIQMTQSPSTLSASVGDRVTITCRASQSISGRLAWYQQKPGKAPNLLIYEASNLESGVPSRFSGSGSGTEFTLTISSLQPEDFATYYCQQSYSWPRTFGQGTKVEIKR
notes: IgG1
B12: G1/929_01_A10 (antibody, human IgG1, V domains shown)
VH: B1 VH
VL: B11 VL
notes: IgG1
B13: G1/280_02_G02_NS (antibody, human IgG1)
heavy: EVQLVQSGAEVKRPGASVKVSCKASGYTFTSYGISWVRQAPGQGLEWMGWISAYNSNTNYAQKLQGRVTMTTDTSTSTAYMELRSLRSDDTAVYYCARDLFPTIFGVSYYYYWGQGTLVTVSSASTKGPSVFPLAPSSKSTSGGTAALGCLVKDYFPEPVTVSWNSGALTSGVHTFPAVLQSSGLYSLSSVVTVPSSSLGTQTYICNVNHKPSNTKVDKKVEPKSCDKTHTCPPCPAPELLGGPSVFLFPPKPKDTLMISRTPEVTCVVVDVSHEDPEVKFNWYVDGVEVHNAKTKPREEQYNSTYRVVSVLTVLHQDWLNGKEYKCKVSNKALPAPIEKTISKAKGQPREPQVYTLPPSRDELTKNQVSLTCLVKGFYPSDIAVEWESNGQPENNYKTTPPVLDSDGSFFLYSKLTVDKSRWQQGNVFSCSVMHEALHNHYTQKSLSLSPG
light: QSALTQPASVSGSPGQSITISCTGTSSDVGGYNSVSWYQQFPGKAPKLMIFEVTNRPSGVSDRFSGSKSDNTASLTISGLQAEDEAEYYCSSFKRGSTLVVFGGGTKLTVLGQPAAAPSVTLFPPSSEELQANKATLVCLISDFYPGAVTVAWKADSSPVKAGVETTTPSKQSNNKYAASSYLSLTPEQWKSHRSYSCQVTHEGSTVEKTVAPTECS
notes: IgG1 without LALA, lambda light chain; NG to NS variant of G1/280_02_G02
B14: G1AA/280_02_G02_NS (antibody, human IgG1, L234A L235A)
heavy: not shown
light: B13 light
notes: also called G1AA/280_2_G02_NS
B15: G1AA/E12v2 (antibody, human IgG1, kappa, L234A L235A, V domains shown)
VH: B1 VH with T28P, G55S, S57G
VL: B1 VL
notes: IgG1 with LALA, kappa light chain; SGGT at 54-57 and proline at Kabat 28 of VH
B16: G1AA/lambdav3 (antibody, human IgG1, L234A L235A, V domains shown)
VH: B1 VH with G55S, S57G
VL: QSALTQPASVSGSPGQSITISCTGTSSDVGGYNYVSWYQQFPGKAPKLMIFEVTNRPSGVSDRFSGSKSDNTASLTISGLQAEDEAEYYCSSFKRGSTLVVFG
notes: IgG1 with LALA, lambda light chain; also called G1AA/lamdav3
B17: G1AA/G12v2 (antibody, human IgG1, kappa, L234A L235A)
heavy: not shown
light: DIQMTQSPSTLSASVGDRVTITCRASQSISGRLAWYQQKPGKAPNLLIYEASNLESGVPSRFSGSGSGTEFTLTISSLQPEDFATYYCQQSYSWPRTFGQGTKVEIKRTVAAPSVFIFPPSDEQLKSGTASVVCLLNNFYPREAKVQWKVDNALQSGNSQESVTEQDSKDSTYSLSSTLTLSKADYEKHKVYACEVTHQGLSSPVTKSFNRGEC
notes: IgG1 with LALA, kappa light chain
B18: G1AA/E05v2 (antibody, human IgG1, kappa, L234A L235A)
heavy: not shown
light: DIQMTQSPSTLSASVGDRVTITCRASQSISGRLAWYQQKPGKAPNLLIYEASNLESGVPSRFSGSGSGTEFTLTISSLQPEDFATYYCQQSYSTPRVTFGQGTKVEIKRTVAAPSVFIFPPSDEQLKSGTASVVCLLNNFYPREAKVQWKVDNALQSGNSQESVTEQDSKDSTYSLSSTLTLSKADYEKHKVYACEVTHQGLSSPVTKSFNRGEC
notes: as for B17

Target: T1, Cyno PD-L1-rCD4-His (cynomolgus)
T1 construct: The entry as printed begins with the signal peptide; also called cynomolgus PD-L1-rCD4-His
T1 sequence (chain, as listed by the source limits assumed): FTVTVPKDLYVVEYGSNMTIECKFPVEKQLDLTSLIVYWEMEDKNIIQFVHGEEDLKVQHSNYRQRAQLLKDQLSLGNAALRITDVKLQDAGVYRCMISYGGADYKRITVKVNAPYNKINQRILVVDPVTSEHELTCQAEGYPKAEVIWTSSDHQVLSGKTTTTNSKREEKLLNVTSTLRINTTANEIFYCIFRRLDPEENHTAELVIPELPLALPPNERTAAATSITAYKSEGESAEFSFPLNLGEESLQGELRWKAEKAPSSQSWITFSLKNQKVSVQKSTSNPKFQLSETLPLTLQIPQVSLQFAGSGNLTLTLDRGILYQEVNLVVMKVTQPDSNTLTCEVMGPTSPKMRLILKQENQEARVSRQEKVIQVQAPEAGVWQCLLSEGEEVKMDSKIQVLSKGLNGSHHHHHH
Assay: SPR, IgG1 from culture supernatant

Kd [nM]	Binder
3.18	B1
0.62	B2
0.6	B3
0.59	B4
0.58	B5
0.57	B6
0.65	B7
3.31	B8
0.57	B9
0.57	B10
0.66	B11
0.6	B12
1.8	B13

Target: T2, human PD-L1-rCD4-His (human)
T2 construct: Human PD-L1 fused to the monomeric C-terminal rat CD4 domains 3 and 4 tag and His tag; made in HEK293; The entry as printed begins with the signal peptide (MRIF...); also called hPD-L1-rCD4-His; hu-PD-L1-rCD4-His
T2 sequence (chain, as listed by the source limits assumed): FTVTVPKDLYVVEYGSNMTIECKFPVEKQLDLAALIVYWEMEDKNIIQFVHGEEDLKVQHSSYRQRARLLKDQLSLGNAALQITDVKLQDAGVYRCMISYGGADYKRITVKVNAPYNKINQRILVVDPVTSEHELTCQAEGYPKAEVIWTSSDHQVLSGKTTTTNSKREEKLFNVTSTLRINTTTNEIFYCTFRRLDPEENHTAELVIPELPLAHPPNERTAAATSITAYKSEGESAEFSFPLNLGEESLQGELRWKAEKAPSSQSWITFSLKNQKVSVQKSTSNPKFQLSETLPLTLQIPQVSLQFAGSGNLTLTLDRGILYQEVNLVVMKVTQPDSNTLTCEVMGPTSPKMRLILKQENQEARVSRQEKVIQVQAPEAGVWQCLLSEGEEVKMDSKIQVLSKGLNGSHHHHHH
Assay: SPR, IgG1 from culture supernatant

Kd [nM]	Binder
2.66	B1
0.55	B2
0.47	B3
0.47	B4
0.45	B5
0.49	B6
0.5	B7
2.66	B8
0.42	B9
0.51	B10
0.51	B11
0.42	B12
1.2	B13

Target: T3, biotinylated human PD-L1-Avi-His (Acro Biosystems, PD1-H82E5) (human, UniProt Q9NZQ7 19-238, biotinylated)
T3 construct: Bought
T3 sequence (Q9NZQ7 19-238 limits assumed): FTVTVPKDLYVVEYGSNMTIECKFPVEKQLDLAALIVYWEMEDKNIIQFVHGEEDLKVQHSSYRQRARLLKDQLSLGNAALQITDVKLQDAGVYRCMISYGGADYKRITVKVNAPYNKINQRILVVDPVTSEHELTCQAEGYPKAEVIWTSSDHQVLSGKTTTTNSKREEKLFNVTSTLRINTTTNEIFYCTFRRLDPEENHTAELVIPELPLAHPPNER
Assay: SPR (Biacore T200), mAb on Protein A chip, antigen 81-0.037 nM
Description: (§1) Briefly, the anti-PD-L1 mAbs, diluted in HBS-EP buffer (GE Healthcare, BR100188) at 2 μg/ml, were injected individually on flows cell 2, 3 and 4 of a Protein A chip (GE Healthcare, 29127556) at 30 μl/min to achieve a final response of approximately 110 RU. The recombinant human, cynomolgus and mouse PD-L1-His antigens, diluted in HBS-EP buffer, were injected on flow cell 1, 2, 3 or 4 as appropriate at a concentration range of 81 nM to 0.037 nM with 3-fold dilutions for 4 min at 75 μl/min and then allowed to dissociate in buffer for 10 min. Regeneration was achieved by injecting 10 mM glycine-HCL pH1.5 (GE Healthcare, Human Antibody Capture Kit, BR00356) for 30 sec at a rate of 30 μl/min. Subtracted data (flow cell 2-flow cell 1, flow cell 3-flow cell 1, or flow cell 4-flow cell 1) were analysed using BIAevaluation 3.2 Software (GE Healthcare) to identify binding using the model 1:1 binding with mass transfer, with refractive index (RI) constant 0. To determine the affinities of the mouse PD-L1 binding curves, the Rmax of the corresponding human binding profiles was used.

Kd [nM]	Binder
1.1	B14

Target: T4, cynomolgus PD-L1-His (Acro Biosystems, PD1-C52H4) (cynomolgus, UniProt G7PSE7 19-239)
T4 construct: Bought; also called Cyno PD-L1-His
T4 sequence (G7PSE7 entry or part of it): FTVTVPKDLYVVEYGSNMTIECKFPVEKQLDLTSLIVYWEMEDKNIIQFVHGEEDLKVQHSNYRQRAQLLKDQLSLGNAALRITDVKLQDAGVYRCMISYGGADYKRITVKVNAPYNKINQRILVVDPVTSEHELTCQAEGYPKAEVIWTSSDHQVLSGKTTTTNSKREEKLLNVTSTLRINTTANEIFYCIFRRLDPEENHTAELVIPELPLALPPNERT
Assay: as above
Description: as §1

Kd [nM]	Binder
1.32	B14

Target: T3, biotinylated human PD-L1-Avi-His (Acro …)
Assay: SPR as in Example 3.2, mAb on Protein A chip
Description: as §1

Kd [nM]	Binder
0.21	B15
1.34	B16
0.44	B17
0.5	B18

Target: T4, cynomolgus PD-L1-His (Acro Biosystems, …)
Assay: SPR as in Example 3.2, mAb on Protein A chip
Description: as §1

Kd [nM]	Binder
0.37	B15
2.45	B16
0.75	B17
0.89	B18

Target: T5, mouse PD-L1-His (Acro Biosystems, PD1-M5220) (mouse, UniProt Q9EP73 19-238)
T5 construct: Bought; also called recombinant mouse PD-L1
T5 sequence (Q9EP73 19-238 limits assumed): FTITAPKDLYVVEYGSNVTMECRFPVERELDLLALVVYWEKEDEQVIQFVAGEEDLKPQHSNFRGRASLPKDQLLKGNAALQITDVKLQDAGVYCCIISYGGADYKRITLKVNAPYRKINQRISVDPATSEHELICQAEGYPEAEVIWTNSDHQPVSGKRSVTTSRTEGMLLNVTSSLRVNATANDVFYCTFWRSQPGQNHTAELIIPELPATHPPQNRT
Assay: SPR (Biacore T200), mAb on Protein A chip, antigen 81-0.037 nM; Rmax of the human profile used
Description: as §1

Kd [nM]	Binder
137	B14

Target: PD-L1 on PD-L1 cells (Promega, CS178103; PD1/PD-L1 Blockade Bioassay J1250/J1255) (UniProt Q9NZQ7 19-290)
Sequence (Q9NZQ7 19-290): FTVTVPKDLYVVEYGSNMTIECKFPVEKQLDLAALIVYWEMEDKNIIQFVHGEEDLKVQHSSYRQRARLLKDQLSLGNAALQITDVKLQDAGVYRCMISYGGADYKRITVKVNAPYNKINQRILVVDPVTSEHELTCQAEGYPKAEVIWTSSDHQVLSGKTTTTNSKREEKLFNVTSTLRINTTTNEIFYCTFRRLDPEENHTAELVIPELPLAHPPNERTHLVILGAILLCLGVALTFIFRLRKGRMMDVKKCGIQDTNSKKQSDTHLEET
Assay: cell-based or functional assay

IC50 (nM), PD1/PD-L1 Blockade Bioassay [nM]	Binder
0.51	B13
